B1: MBP-PIF6_(1-100)-His6 [A. thaliana] / PhyB_(1-651)-Avitag-His6 [modified: phycocyanobilin chromophore; biotin on the Avitag; phycocyanobilin chromophore; biotin on the Avitag] [A. thaliana] (parent)
chain 1: MMFLPTDYCCRLSDQEYMELVFENGQILAKGQRSNVSLHNQRTKSIMDLYEAEYNEDFMKSIIHGGGGAITNLGDTQVVPQSHVAAAHETNMLESNKHVD
chain 2: MVSGVGGSGGGRGGGRGGEEEPSSSHTPNNRRGGEQAQSSGTKSLRPRSNTESMSKAIQQYTVDARLHAVFEQSGESGKSFDYSQSLKTTTYGSSVPEQQITAYLSRIQRGGYIQPFGCMIAVDESSFRIIGYSENAREMLGIMPQSVPTLEKPEILAMGTDVRSLFTSSSSILLERAFVAREITLLNPVWIHSKNTGKPFYAILHRIDVGVVIDLEPARTEDPALSIAGAVQSQKLAVRAISQLQALPGGDIKLLCDTVVESVRDLTGYDRVMVYKFHEDEHGEVVAESKRDDLEPYIGLHYPATDIPQASRFLFKQNRVRMIVDCNATPVLVVQDDRLTQSMCLVGSTLRAPHGCHSQYMANMGSIASLAMAVIINGNEDDGSNVASGRSSMRLWGLVVCHHTSSRCIPFPLRYACEFLMQAFGLQLNMELQLALQMSEKRVLRTQTLLCDMLLRDSPAGIVTQSPSIMDLVKCDGAAFLYHGKYYPLGVAPSEVQIKDVVEWLLANHADSTGLSTDSLGDAGYPGAAALGDAVCGMAVAYITKRDFLFWFRSHTAKEIKWGGAKHHPEDKDDGQRMHPRSSFQAFLEVVKSRSQPWETAEMDAIHSLQLILRDSFKESEAAMNSKVVDGVVQPCRDMAGEQGIDELGA

Variants of: B1
Assay: size exclusion chromatography (gel filtration, Superdex 200 10/300 GL, A671 nm)
Conditions: with PhyB_(1-651)-Avitag-His6 [modified: phycocyanobilin chromophore, PhyB illuminated with 660 nm light, PhyB:MBP-PIF 2:1 molar ratio, 60 min at room temperature, parent: 56, read off a plot

Variant	response (% PhyB-PIF complex)
chain 1 MMFLPTDYSSRLSDQEYMELVFENGQILAKGQRSQVSLHNQRTKSIMDLYEAEYNEDFMKSIIHGGGGAITNLGDTQVVPQSHVAAAHETNMLESNKHVD [chain 1 C9S C10S N35Q]	54
chain 1 MMFLPTDYSSRLSDQEYMELVFENGQILAKGQRSNVSLHNQRTKSIMDLYEAEYNEDFMKSIIHGGGGAITNLGDTQVVPQSHVAAAHETNMLESNKHVD [chain 1 C9S C10S]	64

Results, then the variant that gave them:

response (% PhyB-PIF complex)	Variant
52	chain 1 MMFLPTDYCCRLSDQEYMELVFENGQILAKGQRSQVSLHNQRTKSIMDLYEAEYNEDFMKSIIHGGGGAITNLGDTQVVPQSHVAAAHETNMLESNKHVD [chain 1 N35Q]
57	chain 1 MMFLPTDYCCRLSDQEYMELVFENGQILAKGQRSNVALHNQRTKSIMDLYEAEYNEDFMKSIIHGGGGAITNLGDTQVVPQSHVAAAHETNMLESNKHVD [chain 1 S37A]
